Measurements published in publication PMC7617869 (Nature Structural & Molecular Biology, 2025).

What was measured:
Conditions in all cases: both partners purified
[1] = target: T1, His-tagged BRISC (wild type) (human, UniProt P46736 1-316; Q15018 1-415; Q9NXR7 1-383; Q9NWV8 1-329); test: other fluorescence titration; spectral shift (Dianthus); labelled His–BRISC first incubated with 100 μM FX-171-C (1% DMSO) 15 min, then with SHMT2(A285T) 30 min at 25 °C
[2] = target: T1, His-tagged BRISC (wild type); test: other fluorescence titration; spectral shift (Dianthus); labelled His–BRISC first incubated with 100 μM JMS-175-2 (1% DMSO) 15 min, then with SHMT2(A285T) 30 min at 25 °C
[3] = target: T1, His-tagged BRISC (wild type); test: other fluorescence titration; spectral shift (Dianthus); 12.5 nM RED-Tris-NTA-labelled His–BRISC, SHMT2(A285T) 46 μM to 1.4 nM; 25 mM HEPES pH 7.5, 150 mM NaCl, 1 mM DTT, 0.005% Tween-20; 25 °C; no compound

B1: SHMT2ΔN(A285T) (residues 18–504) (enzyme)
chain: QLVRMAIRAQHSNAAQTQTGEANRGWTGQESLSDSDPEMWELLQREKDRQCRGLELIASENFCSRAALEALGSCLNNKYSEGYPGKRYYGGAEVVDEIELLCQRRALEAFDLDPAQWGVNVQPYSGSPANLAVYTALLQPHDRIMGLDLPDGGHLTHGYMSDVKRISATSIFFESMPYKLNPKTGLIDYNQLALTARLFRPRLIIAGTSAYARLIDYARMREVCDEVKAHLLADMAHISGLVAAKVIPSPFKHADIVTTTTHKTLRGTRSGLIFYRKGVKAVDPKTGREIPYTFEDRINFAVFPSLQGGPHNHAIAAVAVALKQACTPMFREYSLQVLKNARAMADALLERGYSLVSGGTDNHLVLVDLRPKGLDGARAERVLELVSITANKNTCPGDRSAITPGGLRLGAPALTSRQFREDDFRRVVDFIDEGVNIGLEVKSKTAKLQDFKSFLLKDSETSQRLANLRQRVEQFARAFPMPGFDEH
notes: serine hydroxymethyltransferase 2 (SHMT2), residues 18-504; also called SHMT2(A285T); serine hydroxymethyltransferase 2
For B1, the “KD after incubation of BRISC with FX-171-C” value [1] was 3600 ± 1800 nM, the “KD after incubation of BRISC with JMS-175-2” value [2] was 700 ± 300 nM and the Kd [3] was 400 ± 100 nM.
